The data set in a line: soluble on expression in E. coli; label from the status in PepcDB or PDB records.
As to “MGSSHHHHHHSSGLVPRGSPTVTPTVNRENKPTCYPKAEISRLSASQIRNLNPVFGGSGPALTGLRNLGNTCYMNSILQCLCNAPHLADYFNRNCYQDDINRSNLLGHKGEVAEEFGIIMKALWTGQYRYISPKDFKITIGKINDQFAGYSQQDSQELLLFLMDGLHEDLNKADNRKRYKEENNDHLDDFKAAEHAWQKHKQLNESIIVALFQGQFKSTVQCLTCHKKSRTFEAFMYLSLPLASTSKCTLQDCLRLFSKEEKLTDNNRFYCSHCRARRDSLKKIEIWKLPPVLLVHLKRFSYDGRWKQKLQTSVDFPLENLDLSQYVIGPKNNLKKYNLFSVSNHYGGLDGGHYTAYCKNAARQRWFKFDDHEVSDISVSSVKSSAAYILFYTSLG”, the “soluble on expression in E. coli” value is listed as “soluble”. Under “MGSDKIHHHHHHMEHAQMSEKTTNELEKLREHIDSVDQQLLHLLRKRLDLVAQVGGVKHAAGVPIYAPQREASMLAKRREEAAKMNVSPQLIEDILRRLMRESYLNEKDVGFKQVKTDLGHVVIVGGQGKLGGLFAQMLSLSGYQVKSLDKDDWQQADAIFDGAGMVIVTVPISITCELIRDKLTSLPSSCILADLTSIKEKPLEAMLASHQGPVVGLHPMFGPDVGSLAKQVVVVCHGRGREQYEWLLEQIGIWGARLVEADAQQHDKAMQLVQAMRHFSSFVYGLNLYREAADIDNLLQFSSPIYRLELAMVGRLFAQSPELYADIIFAQQESLTAIGDYLDNYAQALELLKRGDRQGFIREFEEVAAWFGDFAPQFQRESRAMLQSVNDMKTG” stands “not soluble”; under “SNAQESRLDRILESGVLRVATTGDYKPFSYRTEEGGYAGFDVDMAQRLAESLGAKLVVVPTSWPNLMRDFADDRFDIAMSGISINLERQRQAYFSIPYLRDGKTPITLCSEEARFQTLEQIDQPGVTAIVNPGGTNEKFARANLKKARILVHPDNVTIFQQIVDGKADLMMTDAIEARLQSRLHPELCAVHPQQPFDFAEKAYLLPRDEAFKRYVDQWLHIAEQSGLLRQRMEHWLEYR”, “soluble”. On to “MGSDKIHHHHHHMIEPVSEDTILITLAPAIDDTLPARIASLVDSIRRAGFHWLVDMVPSYTTLMVVYDPVLVDFRQVTDKLRPIVHRLSTQGHTAELKSRLVELPVYYSAETGPDLQWLATESGLDCEEVIRRHSSVEYRVHALGFAPGFAFMGQVDPSIAAPRKTTPRKQVPAGSVGIANRQTAVYPQVSPGGWQLIGRCPTRLFDSTNLSLLKVGDRVRFTPISREAFLAAGGELIS”, for which the “soluble on expression in E. coli” value is “not soluble”. Turning to “SDLPDSASRVFCGRILSMVNTDDVNAIILAQKNMLDRFEKTNEMLLNFNNLSSARLQQMSERFLHHTRTLVEMKRDLDSIFRRIRTLKGKLARQHPEAFSHIPEASFLEEEDEDPIPPSTTTTIATSEQSTGSCDTSPDTVSPSLSPGFEDLSHVQAGSPAINGRSQTDDEEMTGE”, the “soluble on expression in E. coli” value is on record as “soluble”. For “YPMVNNYLEMGHGLYVVEIHVKSNLHDTPLSKLISRGSYNIQPILVKREEAVYTNINDEFVLNEFDTLLLCGSRAELKYVAPRLV” the value was “not soluble”; for “GWAAGDYPVVTTDHLKAMIDEKRDFLLIDARTPEEYAEAHIVGAVNVPEKTFDSASAQLPADKAKLIVLYCNGIKCGKSKRVAKKVEPLGYTAIAVYNEGMPVWEERGLPIVKGAGYGRK”, “not soluble”.

For “MAHHHHHHMSSTVTGQAIPKLFPKAFHSWVGTGRIFNFLAPYEQNRVIAYLNSIYNTAPLFKWSLSIVPLYGIVSGYPPVEKIDFNSSAALCATGMVWFVYALLIQPQNSGSRSLALVNICLATVNGYNCYRSAQHKRRQAVNANRIE”, the “soluble on expression in E. coli” value is “not soluble”. As for “ERVDEKVFSAGTSIFRGILEKVKAPLMYGDREVWGMARASEDFFFILPVTDDLTPVLFYNRLTNEPCFVSDQGITEYFKFAQEGDYIEVEGSSVFMANLLYYRFFPTRITSYNAPIEGVVSKTGNPAFTIPMLPGVSDCIEISNNRKVFLTNQLGVVNITDGMEPPIIAGVSASYGSSVRVYGHVSQRWDIIGHCYLDIYPTNCYPLSTKPVAGDDEVFVKQQGRQIEIDSNSPIVQVVVYDLEGKSVFRKRMTENA”, the “soluble on expression in E. coli” value is “not soluble”.

As to “MGSDKIHHHHHHMKFIVTPDIFEKLPDMYVGVVVAKGIDNSKNYPEIDRLLNRYMKYSQQKFDGINVKQNDEIIPYREAFRKIGINPNRYPCSAEALFKRLSKGKNLPHINPLVNLNNAISLKYTVLMGTHSLDGVQDDIIMRLTKSGDNFVPLGKDEVEEPDEGEVVYAVGSDVCIRRWTWRQSEHSKITDQTHDVFFPIDGFVDVNRDAVDKAREDLVGKSKEIFGVETQVGYVDKNHPEFEWE”, the “soluble on expression in E. coli” value was “not soluble”.

(Values after the DeepSol protein solubility set.)
